Experimental data taken from publication PMC9108619.

Biological target: T1, UPF2 (endogenous), Q9HAU5
T1 chain: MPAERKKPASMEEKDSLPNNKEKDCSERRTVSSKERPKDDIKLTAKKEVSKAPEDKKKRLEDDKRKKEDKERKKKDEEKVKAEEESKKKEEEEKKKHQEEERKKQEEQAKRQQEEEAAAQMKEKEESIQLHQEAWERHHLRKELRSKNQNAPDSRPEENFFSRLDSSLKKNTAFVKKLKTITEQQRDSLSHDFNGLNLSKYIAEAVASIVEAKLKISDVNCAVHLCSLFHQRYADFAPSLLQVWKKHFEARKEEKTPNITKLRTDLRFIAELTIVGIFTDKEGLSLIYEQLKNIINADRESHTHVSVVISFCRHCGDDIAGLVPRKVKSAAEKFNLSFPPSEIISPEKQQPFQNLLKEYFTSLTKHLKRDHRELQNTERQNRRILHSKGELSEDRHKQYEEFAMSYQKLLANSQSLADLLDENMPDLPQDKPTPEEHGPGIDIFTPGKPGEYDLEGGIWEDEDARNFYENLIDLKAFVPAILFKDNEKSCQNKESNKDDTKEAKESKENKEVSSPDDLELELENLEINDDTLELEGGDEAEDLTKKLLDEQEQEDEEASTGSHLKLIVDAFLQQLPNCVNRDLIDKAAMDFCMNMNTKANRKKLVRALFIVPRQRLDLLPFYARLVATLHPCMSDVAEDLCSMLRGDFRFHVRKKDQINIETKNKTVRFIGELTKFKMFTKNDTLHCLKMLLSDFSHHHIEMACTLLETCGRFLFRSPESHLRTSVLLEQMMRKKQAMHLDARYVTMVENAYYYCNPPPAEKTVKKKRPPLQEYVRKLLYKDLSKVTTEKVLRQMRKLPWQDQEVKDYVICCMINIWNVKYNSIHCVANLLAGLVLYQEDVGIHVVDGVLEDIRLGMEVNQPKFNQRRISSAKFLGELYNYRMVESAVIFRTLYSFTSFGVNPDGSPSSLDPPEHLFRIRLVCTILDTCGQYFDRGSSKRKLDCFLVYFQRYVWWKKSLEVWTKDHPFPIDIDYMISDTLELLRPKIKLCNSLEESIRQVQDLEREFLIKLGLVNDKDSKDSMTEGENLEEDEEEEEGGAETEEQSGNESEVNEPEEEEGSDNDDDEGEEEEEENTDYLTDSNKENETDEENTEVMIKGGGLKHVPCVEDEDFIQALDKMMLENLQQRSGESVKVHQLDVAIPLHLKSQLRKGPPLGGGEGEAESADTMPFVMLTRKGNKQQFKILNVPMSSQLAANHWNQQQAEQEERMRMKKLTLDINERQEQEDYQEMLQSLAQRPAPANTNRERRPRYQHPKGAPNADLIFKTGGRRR
Assay: TurboID proximity labelling, streptavidin enrichment, mass spectrometry
Conditions: chain shown with the change; UPF3B KO + UPF3A KD cells; n = 3 biologically independent samples; read off a plot

other: log2 fold change: -1.8
B1: FLAG-TurboID-UPF3B, Q9BZI7-2 K52D; RR56EE (protein)
chain: MKEEKEHRPKEKRVTLLTPAGATGSGGGTSGDSSKGEDKQDRNKEKKEALSDVVIEELPPTLTKEQLQEHLQPMPEHDYFEFFSNDTSLYPHMYARAYINFKNQEDIILFRDRFDGYVFLDNKGQEYPAIVEFAPFQKAAKKKTKKRDTKVGTIDDDPEYRKFLESYATDNEKMTSTPETLLEEIEAKNRELIAKKTTPLLSFLKNKQRMREEKREERRRREIERKRQREEERRKWKEEEKRKRKDIEKLKKIDRIPERDKLKDEPKIKLLKKPEKGDEKELDKREKAKKLDKENLSDERASGQSCTLPKRSDSELKDEKPKRPEDESGRDYREREREYERDQERILRERERLKRQEEERRRQKERYEKEKTFKRKEEEMKKEKDTLRDKGKKAESTESIGSSEKTEKKEEVVKRDRIRNKDRPAMQLYQPGARSRNRLCPPDDSTKSGDSAAERKQESGISHRKEGGEE
